Data on four substances can be found in publication PMC10790770.

Common to all, as to experiment: cross-linking; cysteine cross-linking with CuCl2 in E. coli co-producing the T2SS lacking pulF (pCHAP8252) and PulF or PulFΔN Cys variants (pCHAP8259 derivatives); total extracts on 4%–15% SDS gradient gels, blot with anti-PulFC
The target in assay [1] is PulF^V171C-P371C (K. oxytoca) (UniProt P15745).
For assay [2], the target named is PulF^Y168C-E370C (K. oxytoca) (UniProt P15745).
The target in assay [3] is PulFΔN^V171C-P371C (K. oxytoca) (UniProt P15745).
Assay [4] deals with PulFΔN^Y168C-E370C (K. oxytoca) (UniProt P15745).

Broadly, the stoichiometry N is a count of units in the complex or per binding partner.

In the case of “PulF^V171C-P371C (from UniProt P15745 1-381) (natural protein)”, the stoichiometry N in assay [1] was 3.

For the substance “PulF^Y168C-E370C (from UniProt P15745 1-381) (natural protein)”, the stoichiometry N in assay [2] came to 3.

For the substance “PulFΔN^V171C-P371C (from UniProt P15745 35-381) (domain or fragment)”, in assay [3], the stoichiometry N is 3.

“PulFΔN^Y168C-E370C (from UniProt P15745 35-381) (domain or fragment)” displayed a stoichiometry N in assay [4] of 3.
